The supplement of paper PMC9112550, “Optimization of the antimicrobial peptide Bac7 by deep mutational scanning” (BMC Biology, 2022)

tested on: Escherichia coli TOP10; assay: shrunken log2 fold change of peptide-encoding DNA abundance (4.5 h post-induction vs induction); higher = less antimicrobial activity (less host growth inhibition); conditions: time post-induction: 4.5 h; library: site-saturation at positions 5, 18, 19, 20
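Further: peptides expressed intracellularly from a pBAD plasmid library in pooled LB shake-flask culture, induced with 0.3% L-arabinose, DNA abundance read by NGS, three biological replicates, DESeq2 with apeglm shrinkage.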

| Sequence | shrunken log2 fold change |
| --- | --- |
| RRIRPRPPRLPRPRPRPSACPRP | 0.0137 |
| RRIRKRPPRLPRPRPRPIYMPRP | -0.0645 |
| RRIRHRPPRLPRPRPRPRESPRP | -0.0496 |
| RRIRWRPPRLPRPRPRPDLKPRP | 0.12 |
| RRIRRRPPRLPRPRPRPPCCPRP | 0.623 |
| RRIRMRPPRLPRPRPRPNNCPRP | -0.167 |
| RRIRGRPPRLPRPRPRPDITPRP | 1.01 |
| RRIRRRPPRLPRPRPRPCDCPRP | 0.00422 |
| RRIRTRPPRLPRPRPRPCAPPRP | -0.142 |
| RRIRFRPPRLPRPRPRPRGGPRP | 0.9 |
| RRIRARPPRLPRPRPRPDNRPRP | 0.0425 |
| RRIRCRPPRLPRPRPRPVCMPRP | -0.119 |
| RRIRNRPPRLPRPRPRPAMDPRP | 0.166 |
| RRIRQRPPRLPRPRPRPGGGPRP | 0.748 |
| RRIRVRPPRLPRPRPRPKYRPRP | -0.0331 |
| RRIRWRPPRLPRPRPRPFDPPRP | 0.0827 |
| RRIRHRPPRLPRPRPRPIWAPRP | 0.0355 |
| RRIRPRPPRLPRPRPRPGLSPRP | 0.206 |
| RRIRRRPPRLPRPRPRPKCAPRP | 0.884 |
| RRIRQRPPRLPRPRPRPYAEPRP | -0.0595 |
| RRIRERPPRLPRPRPRPVVIPRP | -0.251 |
| RRIRYRPPRLPRPRPRPFDPPRP | -0.199 |

| Sequence | shrunken log2 fold change |
| --- | --- |
| RRIRSRPPRLPRPRPRPGYPPRP | -0.209 |
| RRIRMRPPRLPRPRPRPIYVPRP | -0.165 |
| RRIRKRPPRLPRPRPRPNHYPRP | -0.441 |
| RRIRTRPPRLPRPRPRPALNPRP | -0.0937 |
| RRIRDRPPRLPRPRPRPCYEPRP | 0.00345 |
| RRIRDRPPRLPRPRPRPQHPPRP | -0.00435 |
| RRIRQRPPRLPRPRPRPGRGPRP | 0.333 |
| RRIRDRPPRLPRPRPRPDPAPRP | 0.304 |
| RRIRCRPPRLPRPRPRPAFPPRP | 0.16 |
| RRIRPRPPRLPRPRPRPKEYPRP | -0.356 |
| RRIRIRPPRLPRPRPRPGGSPRP | -0.0491 |
| RRIRWRPPRLPRPRPRPRDKPRP | 0.347 |
| RRIRPRPPRLPRPRPRPGDCPRP | 0.482 |
| RRIRTRPPRLPRPRPRPAQVPRP | -0.112 |
| RRIRSRPPRLPRPRPRPGQFPRP | -0.112 |
| RRIRERPPRLPRPRPRPQSFPRP | -0.0705 |
| RRIRCRPPRLPRPRPRPTYNPRP | -0.722 |
| RRIRARPPRLPRPRPRPPLKPRP | 0.33 |
| RRIRTRPPRLPRPRPRPWYAPRP | -0.521 |
| RRIRHRPPRLPRPRPRPEGNPRP | -0.0642 |
| RRIRLRPPRLPRPRPRPPTFPRP | 0.00353 |
| RRIRCRPPRLPRPRPRPPTEPRP | 1.77 |

| Sequence | shrunken log2 fold change |
| --- | --- |
| RRIRKRPPRLPRPRPRPSDEPRP | 0.258 |
| RRIRIRPPRLPRPRPRPHAKPRP | -0.348 |
| RRIRERPPRLPRPRPRPYQHPRP | -0.106 |
| RRIRVRPPRLPRPRPRPKKEPRP | 0.18 |
| RRIRGRPPRLPRPRPRPHRPPRP | -0.00248 |
| RRIRYRPPRLPRPRPRPWSTPRP | -0.458 |
| RRIRTRPPRLPRPRPRPRKPPRP | 0.225 |
| RRIRPRPPRLPRPRPRPNKTPRP | -0.0733 |
| RRIRDRPPRLPRPRPRPCTQPRP | 0.0408 |
| RRIRCRPPRLPRPRPRPWHHPRP | -1.14 |
| RRIRSRPPRLPRPRPRPFWYPRP | -0.185 |
| RRIRHRPPRLPRPRPRPSKTPRP | -0.24 |
| RRIRWRPPRLPRPRPRPNMDPRP | 0.0467 |
| RRIRERPPRLPRPRPRPCLTPRP | -0.0208 |
| RRIRERPPRLPRPRPRPSPEPRP | 0.0512 |
| RRIRDRPPRLPRPRPRPHFWPRP | -0.0278 |
| RRIRRRPPRLPRPRPRPDCTPRP | 0.252 |
| RRIRGRPPRLPRPRPRPCHLPRP | -0.0648 |
| RRIRQRPPRLPRPRPRPFFAPRP | 0.414 |
| RRIRFRPPRLPRPRPRPSRHPRP | -0.162 |
| RRIRPRPPRLPRPRPRPLTMPRP | -0.186 |
| RRIRYRPPRLPRPRPRPTLGPRP | -0.16 |

| Sequence | shrunken log2 fold change |
| --- | --- |
| RRIRPRPPRLPRPRPRPCGVPRP | 0.205 |
| RRIRWRPPRLPRPRPRPVCGPRP | 0.649 |
| RRIRGRPPRLPRPRPRPKKKPRP | 0.354 |
| RRIRVRPPRLPRPRPRPHTCPRP | -0.345 |
| RRIRDRPPRLPRPRPRPRLEPRP | 0.387 |
| RRIRWRPPRLPRPRPRPNPYPRP | -0.133 |
| RRIRDRPPRLPRPRPRPLQNPRP | 0.338 |
| RRIRKRPPRLPRPRPRPYEEPRP | -0.0817 |
| RRIRPRPPRLPRPRPRPWDWPRP | 0.00784 |
| RRIRWRPPRLPRPRPRPQESPRP | 0.00801 |
| RRIRNRPPRLPRPRPRPIPQPRP | -0.35 |
| RRIRYRPPRLPRPRPRPTTEPRP | 0.00298 |
| RRIRRRPPRLPRPRPRPFAIPRP | 0.102 |
| RRIRERPPRLPRPRPRPKWYPRP | -0.175 |
| RRIRTRPPRLPRPRPRPNWRPRP | 0.176 |
| RRIRQRPPRLPRPRPRPVKMPRP | -0.211 |
| RRIRTRPPRLPRPRPRPCPPPRP | -0.143 |
| RRIRTRPPRLPRPRPRPSRIPRP | -0.179 |
| RRIRHRPPRLPRPRPRPHEDPRP | 0.0316 |
| RRIRQRPPRLPRPRPRPATWPRP | 0.343 |
| RRIRIRPPRLPRPRPRPLWMPRP | -0.303 |
| RRIRFRPPRLPRPRPRPESEPRP | 0.0687 |

| Sequence | shrunken log2 fold change |
| --- | --- |
| RRIRSRPPRLPRPRPRPIDCPRP | -1.27 |
| RRIRNRPPRLPRPRPRPVICPRP | -0.102 |
| RRIRSRPPRLPRPRPRPPWCPRP | 0.309 |
| RRIRDRPPRLPRPRPRPCVEPRP | 0.111 |
| RRIRYRPPRLPRPRPRPAGPPRP | -0.0366 |
| RRIRVRPPRLPRPRPRPPFSPRP | 0.15 |
| RRIRVRPPRLPRPRPRPLVTPRP | -0.348 |
| RRIRWRPPRLPRPRPRPKNIPRP | -0.159 |
| RRIRKRPPRLPRPRPRPCHVPRP | -0.203 |
| RRIRQRPPRLPRPRPRPFYKPRP | -0.118 |
| RRIRSRPPRLPRPRPRPPWQPRP | 0.449 |
| RRIRTRPPRLPRPRPRPMCFPRP | 0.0222 |
| RRIRERPPRLPRPRPRPWGAPRP | 0.165 |
| RRIRARPPRLPRPRPRPDQMPRP | 0.386 |
| RRIRSRPPRLPRPRPRPWYRPRP | -0.119 |
| RRIRERPPRLPRPRPRPTYFPRP | -0.475 |
| RRIRRRPPRLPRPRPRPVDNPRP | 0.0838 |
| RRIRIRPPRLPRPRPRPANDPRP | -0.135 |
| RRIRQRPPRLPRPRPRPPRMPRP | 0.442 |
| RRIRHRPPRLPRPRPRPPFYPRP | -0.288 |
| RRIRSRPPRLPRPRPRPYLEPRP | -0.118 |
